# Assay results reported in article PMC7877763 (2021).
# Numbering of substitutions follows the chain as printed. Numbers in names are those of the source.
# B1: recombinant canine HSP47-R222S (natural protein)
# chain: LSPKAATLAERSAGLAFSLYQAMAKDQAVENILLSPVVVASSLGLVSLGGKATTASQAKAVLSAEQLRDEEVHAGLGELLRSLSNSTARNVTWKLGSRLYGPSSVSFAEDFVRSSKQHYNCEHSKINFRDKRSALQSINEWAAQTTDGKLPEVTKDVERTDGALLVNAMFFKPHWDEKFHHKMVDNSGFMVTRSYTVGVTMMHRTGLYNYYDDEKEKLQIVEMPLAHKLSSLIILMPHHVEPLERLEKLLTKEQLKIWMGKMQKKAVAISLPKGVVEVTHDLQKHLAGLGLTEAIDKNKADLSRMSGKKDLYLASVFHATAFEWDTEGNPFDQDIYGREELRSPKLFYADHPFIFLVRDTQSGSLLFIGRLVRPKGDKMRDEL
# B2: recombinant wild-type canine HSP47 (natural protein)
# chain: B1 chain with S187R
# Key:
# [1] = molecular target: GPR-foldon (foldon stabilized collagen model peptide containing a (GPP)5GPR(GPP)6 collagen sequence) (biotinylated (site not stated) for the BLI experiment); assay: BLI
# [2] = molecular target: full length pepsinized type I collagen from mouse tail tendon (mouse, UniProt P11087 152-1207; Q01149 86-1125); assay: SPR
# full length pepsinized type I collagen from mouse tail tendon, sequence (P11087 152-1207, chain 1 of 2): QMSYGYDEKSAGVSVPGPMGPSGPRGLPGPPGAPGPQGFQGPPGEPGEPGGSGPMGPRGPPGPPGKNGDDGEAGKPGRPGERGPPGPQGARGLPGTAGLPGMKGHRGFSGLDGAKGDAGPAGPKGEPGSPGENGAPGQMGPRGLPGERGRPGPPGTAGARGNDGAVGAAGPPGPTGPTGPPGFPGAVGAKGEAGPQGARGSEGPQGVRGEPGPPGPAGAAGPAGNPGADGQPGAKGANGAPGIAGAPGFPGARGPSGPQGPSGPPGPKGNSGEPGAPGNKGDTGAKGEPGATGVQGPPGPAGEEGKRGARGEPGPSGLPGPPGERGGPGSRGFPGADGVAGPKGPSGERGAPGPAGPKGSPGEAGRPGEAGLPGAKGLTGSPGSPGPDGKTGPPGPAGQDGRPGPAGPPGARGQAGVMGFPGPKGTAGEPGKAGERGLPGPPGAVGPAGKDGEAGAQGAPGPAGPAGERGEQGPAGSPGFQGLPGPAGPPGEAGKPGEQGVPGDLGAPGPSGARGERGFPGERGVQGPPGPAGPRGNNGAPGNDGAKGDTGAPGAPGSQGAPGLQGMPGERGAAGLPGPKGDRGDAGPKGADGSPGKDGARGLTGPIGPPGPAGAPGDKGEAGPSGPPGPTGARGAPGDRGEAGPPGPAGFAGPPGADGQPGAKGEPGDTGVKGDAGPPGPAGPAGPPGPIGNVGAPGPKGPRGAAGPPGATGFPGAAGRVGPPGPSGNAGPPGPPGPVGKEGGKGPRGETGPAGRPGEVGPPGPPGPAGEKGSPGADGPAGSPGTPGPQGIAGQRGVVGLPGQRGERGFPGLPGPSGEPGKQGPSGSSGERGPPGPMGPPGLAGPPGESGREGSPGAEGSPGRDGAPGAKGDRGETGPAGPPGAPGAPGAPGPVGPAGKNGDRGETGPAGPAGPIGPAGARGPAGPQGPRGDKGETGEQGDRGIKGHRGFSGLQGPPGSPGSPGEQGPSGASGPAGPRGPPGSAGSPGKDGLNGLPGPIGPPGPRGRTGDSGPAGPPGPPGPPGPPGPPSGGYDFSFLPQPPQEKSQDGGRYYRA
# full length pepsinized type I collagen from mouse tail tendon, sequence (Q01149 86-1125, chain 2 of 2): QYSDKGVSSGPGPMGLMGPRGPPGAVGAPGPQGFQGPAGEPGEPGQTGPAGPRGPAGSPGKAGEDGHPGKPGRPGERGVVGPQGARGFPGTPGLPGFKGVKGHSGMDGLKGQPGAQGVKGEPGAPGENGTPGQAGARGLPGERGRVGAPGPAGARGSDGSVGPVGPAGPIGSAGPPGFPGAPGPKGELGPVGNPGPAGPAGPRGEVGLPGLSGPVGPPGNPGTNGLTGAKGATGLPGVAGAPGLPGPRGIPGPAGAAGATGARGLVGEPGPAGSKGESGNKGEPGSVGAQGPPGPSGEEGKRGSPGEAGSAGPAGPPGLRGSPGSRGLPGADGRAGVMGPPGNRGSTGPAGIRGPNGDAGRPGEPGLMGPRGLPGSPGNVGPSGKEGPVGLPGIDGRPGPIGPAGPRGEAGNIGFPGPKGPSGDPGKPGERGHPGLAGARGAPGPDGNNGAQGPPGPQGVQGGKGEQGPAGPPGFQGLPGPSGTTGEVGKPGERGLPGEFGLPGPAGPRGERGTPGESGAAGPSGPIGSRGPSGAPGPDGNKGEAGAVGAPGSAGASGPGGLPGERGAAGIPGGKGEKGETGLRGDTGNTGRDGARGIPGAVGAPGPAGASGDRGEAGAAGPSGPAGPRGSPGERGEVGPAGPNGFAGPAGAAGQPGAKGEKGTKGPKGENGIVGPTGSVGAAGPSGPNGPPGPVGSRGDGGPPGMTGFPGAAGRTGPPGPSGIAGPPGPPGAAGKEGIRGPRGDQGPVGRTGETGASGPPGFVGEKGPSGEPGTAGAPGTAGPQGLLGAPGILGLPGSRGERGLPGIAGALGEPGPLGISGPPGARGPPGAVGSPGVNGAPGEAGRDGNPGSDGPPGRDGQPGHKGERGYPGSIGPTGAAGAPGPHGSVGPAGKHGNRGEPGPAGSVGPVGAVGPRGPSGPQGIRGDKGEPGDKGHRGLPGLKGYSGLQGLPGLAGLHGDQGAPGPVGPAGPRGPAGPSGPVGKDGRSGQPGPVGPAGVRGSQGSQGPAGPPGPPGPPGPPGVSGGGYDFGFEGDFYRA
Binder,koff [1] [s⁻¹],koff [2] [s⁻¹]
B1,0.0186,0.003
B2,0.0185,0.011
